{
  "source": "patent US20190002846A1",
  "about": "“POLYPEPTIDES HAVING DEMETHYLATING ACTIVITY” (Genencor International B.V., priority 2015, published 2019)",
  "molecules": {"B1": {"name": "PPO7: Myceliophthora thermophila C1 polyphenoloxidase with demethylating activity, mature form SEQ ID NO: 45 (protein, listed as Myceliophthora thermophila)", "chain": "NPMHKRWKPNAPRNPDFPLDEVDKLEESIMPNVEAWMSKRPAKYSNCTLENAGIRREWSDLSVDERKEYISAVLCLQSKPSKIPEGEVPGALSRFDDFVATHMTMAGQLHSPTNLFAAHRYFIHAYEKALREECGYKGYQPYMNYDRYADDPLNTPLFDGSDSSMSGNGGPYNYSGIPQPFPKPYNLIPPAGGGGCVTEGPFRDMVVSLGPKGGLFHDIPRNPRADGLGSNPRCLRRDVNKYSARGARANYTYSAIMDNPDIDSFYNRYMGMPQLKGDPYPWGLHSSGHYLIGGDPGGDFYCSPGDPLFYFHHGMLDRVWWIWQMQDPENRVQAVPGTNTMPMPPLMAANLESEAAATTTHKRAVNVSDLVVDLGWTAPPVKLVDLNEQLGGLGGELCYIYV"}},
  "key": {"[1]": {"experiment": "Conversion of syringic acid, sinapic acid and syringol by crude PPOs, absorbance at 400 nm", "type": "biochemical", "settings": "4 mM substrate, crude PPO 8.2 μg/mL, pH 6.0 or 7.0, 50 μM CuSO4, room temperature, 2, 22 and 118 h", "protocol": "Syringic acid, sinapic acid and syringol (4 mM) were incubated with crude PPO2, 4, 6 and 7 from Example 5 in 100 mM BisTris buffer pH 6.0 or 7.0 with 50 μM CuSO4. Crude PPOs were dosed on target protein with a final concentration of 8.2 μg/mL. Substrate blanks prepared without the addition of enzyme and enzyme blanks without the addition of substrate were included. Incubations were performed in microtiterplates with a total reaction volume of 150 μL at room temperature for approximately 120 h. After 2, 22 and 118 h absorbance at 400 nm was measured."}, "[2]": {"experiment": "Catechol oxidase activity assay: initial rate of 3-methoxycatechol oxidation at 400 nm (pH, copper and temperature optima)", "type": "biochemical", "protocol": "PPO activity was determined by measuring the initial rate of 3-methoxycatechol oxidation at 400 nm (extinction coefficient used: ε 1200 M^−1cm^−1). One unit of activity is defined as the amount of PPO activity that oxidizes 1 μmol of 3-methoxycatechol to quinone per minute. Substrate was used at a concentration of 4 mM.\nThe pH optima were determined by measuring the initial rate of 3-methoxycatechol oxidation with varying pHs, at room temperature and using a CuSO4 concentration of 10 μM. The pH was varied in the range of pH3-9 using Carmody buffers. Enzyme loading was applied resulting in A400 absorbance values in the range of 0.1-1. Protein concentration was determined using the BCA method.\nOptimal copper concentrations for the PPOs were determined at the optimal pH by varying the concentration of CuSO4 in the range of 1-1000 μM. In these experiments the pH was controlled using 50 mM Bis-Tris buffer pH 7.0.\nTemperature optima were determined by measuring A400 absorbance after 1 h incubation at temperatures in the range of 20 to 70° C. In these experiments the pH was controlled using 50 mM Bis-Tris buffer pH 7.0. Copper concentrations of (20 or 50 μM) were used to prevent chemical oxidation as background activity at higher copper concentrations."}, "[3]": {"experiment": "Methanol formation by GC, model compound", "type": "biochemical", "settings": "for methanol: 2% enzyme loading, approx. 48 h", "protocol": "Model compounds syringic acid, syringol, 1,3-dimethoxybenzene and 3,5-dimethoxybenzoic acid (12 mM) were incubated with PPO7 from Example 2 (2% loading (w/w)) in 50 mM BisTris buffer pH 6.5 with 10 μM CuSO4. For syringic acid and syringol PPO2 from Example 2 was included as a control. Lignin and lignin-derived compounds (10 g/L) were incubated with PPO7 from Example 2 (0.5 g/L, 5% loading (w/w)). PPO2 from Example 2 was included as a control and incubated using the same conditions. Blanks prepared without the addition of enzyme were included. Incubations were performed in GC headspace vials with a total of 1 mL reaction volume at 25° C. for approximately 48 h while shaking. The reaction was stopped by adding 28 μL 1M HCl to lower the pH to ˜3. Samples were analyzed by GC for methanol formation. A calibration range of 0.23 to 11.5 mM methanol in buffer with HCl was included."}, "[4]": {"molecular_target": "T1, RAC incubated with LPMO9B (Thermothelomyces thermophilus, UniProt G2QCJ3)", "T1 construct": "made in house; host or cells: Myceliophthora thermophila C1 strain W1L#100.1Δpyr5ΔAlp1", "T1 sequence (G2QCJ3 19-323)": "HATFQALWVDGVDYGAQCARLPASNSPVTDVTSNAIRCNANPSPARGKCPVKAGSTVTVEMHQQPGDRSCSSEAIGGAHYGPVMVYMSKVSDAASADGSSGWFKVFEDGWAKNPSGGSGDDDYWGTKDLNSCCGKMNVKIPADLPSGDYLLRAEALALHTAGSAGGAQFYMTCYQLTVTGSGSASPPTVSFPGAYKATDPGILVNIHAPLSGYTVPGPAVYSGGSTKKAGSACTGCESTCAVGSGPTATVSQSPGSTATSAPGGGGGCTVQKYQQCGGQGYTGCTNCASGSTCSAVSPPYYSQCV", "experiment": "RAC hydrolysis assay with LPMO9B and PPO2, PPO7 or AbTyr in the presence of sinapic acid or syringic acid", "type": "biochemical, Myceliophthora thermophila", "settings": "LPMO9B 5 μg/ml alone = 100%, or with added enzyme, pH 5.0, 50° C., 24 h", "protocol": "Reducing agents sinapic acid and syringic acid were obtained from Sigma-Aldrich (St. Louis, Mo., USA). RAC was prepared from Avicel by swelling it in phosphoric acid, (Zhang Y H P, Cui J, Lynd L R, & Kuang L R (2006) A transition from cellulose swelling to cellulose dissolution by o-phosphoric acid: Evidence from enzymatic hydrolysis and supramolecular structure. Biomacromolecules 7(2):644-648.). RAC was dissolved in 50 mM phospate buffer (pH 5.0) to a final concentration of 1.5 mg/ml. Copper chloride was added to a final concentration of 2.5 μM and dimethoxy containg reducing agent sinapic acid or syringic acid to a final concentration of 2 mM. LPMO9B (5 μg/ml) with or without PPO2 (5 μg/ml), PPO7 (5 μg/ml) or AbTyr (7.5 U/ml) were added and incubated for 24 h at 50° C. in a head-over-tail rotator in portions of 1 mL total volume (Stuart® rotator, Bibby Scientific LTD, Stone, UK) at 20 rpm. Products were analysed by HPAEC and MALDI-TOF MS as described previously. (Frommhagen M, Sforza S, Westphal A H, Visser J, Hinz S W, Koetsier M J et al. Discovery of the combined oxidative cleavage of plant xylan and cellulose by a new fungal polysaccharide monooxygenase. Biotechnology for Biofuels. 2015; 8:101. doi:10.1186/s13068-015-0284-1). The Activity denoted as “Activity*” represents total release of non-oxidized and C1-oxidized gluco-oligosaccharides from RAC incubated with LPMO9B in the presence of sinapic or syringic acid as a reducing agent and with addition of either AbTyr, PPO7 or PPO2. […] Standard deviations were less than 2%."}},
  "data": [
    {"molecule": "B1", "values": [
      {"measurement": "Conversion of substrates (absorbance at 400 nm)", "setting": "[1]", "result": "able to convert syringic acid, sinapic acid and syringol"},
      {"measurement": "pHopt", "setting": "[2]; 3-methoxycatechol oxidation, room temperature, 10 μM CuSO4, Carmody buffers pH3-9", "result": 7.0},
      {"measurement": "T range", "setting": "[2]; >50% of maximum activity", "result": "20-55 °C"},
      {"measurement": "pH range", "setting": "[2]; >50% of maximum activity", "result": "6.5-8.0"},
      {"measurement": "[CuSO4] range", "setting": "[2]; >90% of maximum activity", "result": "100 to 1000", "unit": "µM"},
      {"measurement": "Topt", "setting": "[2]; A400 after 1 h incubation, 20 to 70° C., 50 mM Bis-Tris pH 7.0, 20 or 50 μM copper", "result": 40, "unit": "°C"},
      {"measurement": "[CuSO4]opt", "setting": "[2]; at optimal pH, 50 mM Bis-Tris buffer pH 7.0, CuSO4 varied 1-1000 μM", "result": 400, "unit": "µM"},
      {"measurement": "Methanol release (in words)", "setting": "[3]; 1,3-dimethoxybenzene", "result": "no methanol release"},
      {"measurement": "methanol", "setting": "[3]; 1,3-dimethoxybenzene 12 mM, 25° C., blank 0", "result": 0, "unit": "mM"},
      {"measurement": "Methanol release (in words)", "setting": "[3]; 3,5-dimethoxybenzoic acid", "result": "no methanol release"},
      {"measurement": "methanol", "setting": "[3]; 3,5-dimethoxybenzoic acid 12 mM, 25° C., blank 0", "result": 0, "unit": "mM"},
      {"measurement": "Demethylation of syringic acid (in words)", "setting": "[3]; Example 9 conditions", "result": "catalyzed the demethylation"},
      {"measurement": "Demethylation of syringol (in words)", "setting": "[3]; Example 9 conditions", "result": "catalyzed the demethylation"},
      {"measurement": "methanol", "setting": "[3]; Syringic acid 12 mM, pH 6.5, 10 μM CuSO4, 25° C., blank 0", "result": 4.58, "unit": "mM"},
      {"measurement": "methanol", "setting": "[3]; Syringol 12 mM, pH 6.5, 10 μM CuSO4, 25° C., blank 0.06", "result": 5.73, "unit": "mM"},
      {"measurement": "Activity: total release of non-oxidized and C1-oxidized gluco-oligosaccharides from RAC", "setting": "[4]; reducing agent sinapic acid 2 mM", "result": 195, "unit": "%"},
      {"measurement": "Activity: total release of non-oxidized and C1-oxidized gluco-oligosaccharides from RAC", "setting": "[4]; reducing agent syringic acid 2 mM", "result": 142, "unit": "%"}
    ]}
  ]
}
